In patent US11066455B2, “Tmem100 peptides and variants thereof and their use in treating or preventing diseases or conditions” (The Johns Hopkins University, priority 2014, dated 2021):
Where a chain is given by its changes, count along the chain named. * marks the point of attachment. Myristoyl = CCCCCCCCCCCCCC(=O)*

Assays:
[1] = tested on: T1, TRPA1; experiment: Calcium imaging of HEK293T cells expressing TRPA1 and TRPV1 (MO or CA); type: cell-based
T1 construct: percentage of cells responsive to CA; other: shortened CPP 2 μM; CA 10 μM; HEK293 TRPA1+TRPV1; vs scrambled; percentage of cells responsive to MO; other: peptide 200 nM pre-treatment; 500 nM MO; HEK293T TRPA1+TRPV1; percentage of cells that respond to 100 nM MO and 10 μM CA; other: HEK293T TRPA1+TRPV1, Tmem100-3Q-transfected vs lacki; reduction in the percentage of cells responding to MO
Procedure: Calcium imaging assays were performed as previously described (Liu et al., 2009). Cells were loaded with 2 μM fura 2-acetomethoxy ester (Molecular Probes) for 30 min in the dark at room temperature or for 45 minutes at 37° C. for DRG and cell lines, respectively. After washing, cells were imaged at 340 and 380 nm excitation to detect intracellular free calcium under a fluorescent microscope (Nikon Eclipse TE2000-S) and Lambda 10B shutter (Sutter Instrument). The cells were bathed in calcium imaging buffer (pH 7.45, 130 mM NaCl, 3 mM KCl, 2.5 mM CaCl2, 10 mM HEPES, 10 mM glucose, 1.2 mM NaHCO3, with sucrose to increase osmolarity to 290 mOsm). The reagents and buffers were applied through a gravity perfusion system at a rate of […], including mustard oil (Sigma 377430), cinnamaldehyde (Sigma C80687), menthol (Sigma M2780), and capsaicin (Sigma M2028). Cells with high baseline 340/380 values (>1.5) were excluded for analysis. For DRG neurons, IB4 staining was performed in the chamber with the dilution of 1:200 (Molecular Probes 121412) for 160 seconds before washing off at the end of each test. Images were processed and analyzed with NIS-Elements BR 2.30 software (Nikon). A responsive cell was defined as one that with greater than a 20% increase in the 340/380 ratio above the baseline. Intracellular calibration for calcium was performed as previously described (Akopian et al., 2007). The data was analyzed with the experimenter blinded to the genotypes or constructs transfected.
DRG from 3 to 4-week old mice were collected in cold DH10 medium (90% DMEM/F-12, 10% FBS, 100 U/ml penicillin, and 100 μg/ml Streptomycin, Gibco) and treated with enzyme solution in HBSS containing collagenase (1.65 mg/mL, Worthington CLS I) and dispase (3.55 mg/mL, GIBCO 17105-041) at 37° C. for 30 minutes. After trituration and centrifugation, cells were resuspended in DH10, plated on glass coverslips coated with poly-D-lysine (0.5 mg/ml, Stoughton, Mass.) and laminin (10 μg/ml, Invitrogen), and cultured overnight in an incubator at 37° C. The neurons were tested within 24 hours. HEK293T, COS-7, and CHO cells were cultured in a medium consisting of 90% DMEM, 10% FBS, 100 U/mL penicillin, and 100 μg/ml Streptomycin. GlutaMAX (Gibco 35050-061) was also added for CHO cells. For calcium imaging, the cells were plated on glass coverslips coated with poly-D-lysine (0.5 mg/ml, Stoughton, Mass.). In the HEK cell studies the denominator is the cells expressing both TRPA1, TRPV1, and the designated constructs (i.e. Tmem100 or Tmem100-3Q mutant). mCherry:TRPV1:Tmem100 was transfected in 1:8:8 ratio into TRPA1 stable cell line (obtained from N. Tigue from GlaxoSmithKline) and used mCherry as the marker for the cells expressing the constructs 18 hours after transfection with Lipofectamine 2000. The transfection efficiency for Tmem100+TRPV1+TRPA1 triple-positive cells is 27±3%. This efficiency was determined by mCherry(+) divided by total number of cells in the bright fields.
The sequence from the last 28 amino acids of the C-terminus of the Tmem100-3Q mutant protein was synthesized and myristoylated at its N-terminus (myr-[…]-COOH) (SEQ ID NO: 8) by Twentyfirst Century Biochemicals. […] For the calcium imaging assay, the peptides were added to the calcium imaging buffer with a final concentration of 200 nM and incubated for at least […] at room temperature. For the mice behavioral assays, the peptides (5 μL, 2 mM) were injected subcutaneously in the hindpaw at least 30 minutes before testing. For the rat behavior assays, human T100-3Q (h-T100), a palmitoylated cell permeable peptide mutated based on the C terminus of human sequence in Tmem100, was applied. The sequence is Palmitoyl-[…]-COOH (SEQ ID NO: 7).

[2] = tested on: TRPA1-V1 complex; experiment: FRET with TIRF microscopy of TRPV1-CFP and TRPA1-YFP in COS-7 cells; type: cell-based; conditions: compared to cells expressing only TRPA1-V1
Description: Expression vectors of pEYFP-TRPA1 (YFP on C-terminal part), pECFP-TRPV1 (CFP on C-terminal part), and pEYFP-N1 were transfected into COS-7 cells with FuGENE HD (Promega E2311), as previously described (Staruschenko et al., 2010). COS-7 cells were chosen since they have flat morphology and thus suitable for TIRF-FRET analysis. Moreover, previously it has been shown that CHO and COS cells express TRPA1 and TRPV1 to the same level (Staruschenko et al., 2010). Data from fixed cells were collected in separate facilities at University of Texas Health Science Center, San Antonio, and the Johns Hopkins University, respectively. […] Briefly, two days after transfection, the cells were fixed for 15 min with 4% paraformaldehyde in PBS and then imaged at the room temperature using total internal reflection fluorescence (TIRF) (also called evanescent-field) microscopy on an inverted Nikon Eclipse TE200U microscope equipped with a plain Apo TIRF 60× oil-immersion, high-resolution (1.45 NA) objective. […] Fluorescence images were collected and processed with a 16-bit, cooled charge-coupled device camera (Cascade 512F; Roper Scientific Inc.) interfaced to a PC running Metamorph software.
Each cell was photobleached by argon-ion laser (514 nm) at full power for 2 min. […] All images were analyzed in ImageJ. […]

Q: With “myr-QRVLEQVLQNWSRRANVKQAQKFQVKCT-COOH (Myristoyl-QRVLEQVLQNWSRRANVKQAQKFQVKCT-OH; SMILES CCCCCCCCCCCCCC(=O)N[C@@H](CCC(N)=O)C(=O)N[C@@H](CCCNC(=N)N)C(=O)N[C@H](C(=O)N[C@@H](CC(C)C)C(=O)N[C@@H](CCC(=O)O)C(=O)N[C@@H](CCC(N)=O)C(=O)N[C@H](C(=O)N[C@@H](CC(C)C)C(=O)N[C@@H](CCC(N)=O)C(=O)N[C@@H](CC(N)=O)C(=O)N[C@@H](Cc1c[nH]c2ccccc12)C(=O)N[C@@H](CO)C(=O)N[C@@H](CCCNC(=N)N)C(=O)N[C@@H](CCCNC(=N)N)C(=O)N[C@@H](C)C(=O)N[C@@H](CC(N)=O)C(=O)N[C@H](C(=O)N[C@@H](CCCCN)C(=O)N[C@@H](CCC(N)=O)C(=O)N[C@@H](C)C(=O)N[C@@H](CCC(N)=O)C(=O)N[C@@H](CCCCN)C(=O)N[C@@H](Cc1ccccc1)C(=O)N[C@@H](CCC(N)=O)C(=O)N[C@H](C(=O)N[C@@H](CCCCN)C(=O)N[C@@H](CS)C(=O)N[C@H](C(=O)O)[C@@H](C)O)C(C)C)C(C)C)C(C)C)C(C)C) [scrambled]” as the molecule, how does the “percentage of cells responsive to MO” value ([1]; peptide 200 nM pre-treatment, 500 nM MO, HEK293T TRPA1+TRPV1) read?
A: 18±2.8%

B1: Tmem100-3Q mutant (full-length, mouse) (protein)
chain: MTEESTKENLGAPKSPTPVTMEKNPKREVVVTTGPLVSEVQLMAATGGAELSCYRCIIPFAVVVFITGIVVTAVAYSFNSHGSIISIFGLVLLSSGLFLLASSALCWKVRQRNKKVQQQESQTALVVNQRCLFA
Q: B1 was tested. Which “percentage of cells that respond to 100 nM MO and 10 μM CA” value ([1]; HEK293T TRPA1+TRPV1, Tmem100-3Q-transfected vs lacking Tmem100-3Q) did it give?
A: significantly lower

Q: What about the “enhancement of the TRPA1-TRPV1 interaction (FRET efficiency)” value [2] of the same molecule?
A: 43%

B2: Tmem100: 134-amino acid two-transmembrane protein, regulator of TRPA1 (SEQ ID NO: 1/2), expressed in cells (protein, listed as Homo sapiens, listed as Mus musculus)
chain 1: MTEEPIKEILGAPKAHMAATMEKSPKSEVVITTVPLVSEIQLMAATGGTELSCYRCIIPFAVVVFIAGIVVTAVAYSFNSHGSIISIFGLVVLSSGLFLLASSALCWKVRQRSKKAKRRESQTALVANQRSLFA
chain 2: B1 chain with Q117K, Q118R, Q119R
Q: How did the “decrease of TRPA1-V1 FRET efficiency” value [2] turn out when B2 was run?
A: 34%
